This is an account of results in patent publication US20260258115A1 (MAPP BIOPHARMACEUTICAL, published 2026).

Residue numbers refer to the chain shown, from its start. Names and notes keep the numbering of the source.

The target in assay [1] is T1, RSV F on RSV subtype A virus (RSV-A2) (Respiratory Syncytial Virus, subtype A, …, UniProt P03420 26-574). Briefly: cell-based or functional assay.
For assay [2], the target named is T2, RSV prefusion F (preF), DS-Cav1 stabilized trimer, subtype A (Respiratory Syncytial Virus, subtype A, UniProt P03420 26-513). Briefly: BLI, apparent IgG KD (Table 9A). For orientation: BLI is a label-free optical method that tracks binding on a fibre tip over time.
In assay [3] the target is T3, RSV postfusion F (postF), F ΔFP trimer, subtype A (Respiratory Syncytial Virus, subtype A, UniProt P03420 26-513). Briefly: BLI, apparent IgG KD (Table 9A).
In assay [4] the target is Respiratory Syncytial Virus fusion glycoprotein (RSV F) on RSV-A2 virus (Respiratory Syncytial Virus, UniProt P03420 26-574). Briefly: cell-based or functional assay.
Assay [5] addresses RSV prefusion F (preF), DS-Cav1 (Respiratory Syncytial Virus, UniProt P03420 26-513). Nature of the assay: BLI (ForteBio Octet), IgG on anti-human IgG biosensors.
Assay [6] concerns the target RSV postfusion F (postF), F ΔFP (Respiratory Syncytial Virus, UniProt P03420 26-513). Nature of the assay: BLI (ForteBio Octet), IgG on anti-human IgG biosensors, 100 nM antigen, apparent (IgG) KD.
The target in assay [7] is T4, postF (RSV F ΔFP) with a C-terminal HRV 3C cleavage site, 8xHisTag and StrepTagII (Respiratory Syncytial Virus, UniProt P03420 26-109; P03420 147-513).
T4 construct: also called postfusion F; not shown: C-terminal HRV 3C cleavage site, 8xHisTag and StrepTagII
Briefly: SPR, postF captured on NTA chip, Fab in solution, steady-state fit. (SPR reads the build-up and loss of mass on a sensor chip optically.)

In assay [8] the target is RSV F on RSV subtype B virus (mKate-RSV B 18537) (Respiratory Syncytial Virus, subtype B, …, UniProt P13843 26-574). Nature of the assay: cell-based or functional assay.
Assay [9] has as its target T5, preF (DS-Cav1) with a C-terminal 8X HisTag and AviTag (Respiratory Syncytial Virus, UniProt P03420 26-513).
T5 construct: not shown: C-terminal 8X HisTag and AviTag
Nature of the assay: SPR, preF (DS-Cav1) captured on NTA chip, Fab in solution, 1:1 model.

Assay [10] addresses T1, RSV F on RSV subtype A virus (RSV-A2). Briefly: cell-based or functional assay. This is another data set of the same source.
Assay [11] concerns the target T2, RSV prefusion F (preF), DS-Cav1 …. Briefly: BLI, IgG on anti-human IgG sensors.
The target of assay [12] is T3, RSV postfusion F (postF), F ΔFP trimer, …. Briefly: BLI, IgG on anti-human IgG sensors, 100 nM antigen, apparent KD.

B1: ADI-41596 (antibody, V domains shown)
VH: QVQLQQWGAGLLKPSETLSLTCAVYGDSFSGYFWTWIRQPPGKGLEWIGEINLSGSTNYNPSLKSRVTILVDTSKNQFSLKLSSVTAADTAVYYCARGLHVSDDQDSSGYYFHPGSFDYWGQGTLVTVSS
VL: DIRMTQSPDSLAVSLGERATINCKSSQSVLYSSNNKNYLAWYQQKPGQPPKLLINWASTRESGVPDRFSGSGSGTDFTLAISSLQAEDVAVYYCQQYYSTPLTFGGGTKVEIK
notes: also called Ab 870; Antibody Number 870
Take B1: in assay [1], the “Neutralization - RSV A2 IC50 (pM)” value was 180 pM and the “neut IC50 (ug/ml) subtype A (wright)” value was determined as 0.054 µg/mL. The Kd in assay [2] was 0.3 nM. Besides, the Kd in assay [3] worked out at 0.44 nM.

B2: ADI-43648 (antibody, V domains shown)
VH: EVQLVQSGAEVKKPGASVKVSCKASGYTFTSYDINWVRQATGQGLEWMGWMNPNSGNTGYAQKFQGRVTMTRNTSISTAYMELSSLRSEDTAVYYCATRPAALDYWGQGTLVTVSS
VL: QPVLTQPLSVSVALGQTARITCGGNNIGSKNVHWYQQKPGQAPVLIIYRDSNRPSGIPERFSGSNSGNTATLTISRAQAGDEADYYCQVWDSSTWVFGGGTKLTVL
For the molecule B2, the “Neutralization IC50 (RSV subtype A)” value in assay [4] is > 25 µg/mL. The binding result in [5] was “no binding”. The Kd in assay [6] is 28.6 nM.

B3: ADI-14359 R50L Fab (germline reverted variant) (Fab, V domains shown)
VH: QVQLVQSGPALVKPTQTLTLTCTFSGFSLSTSGMCVSWIRQPPGKALEWLALIDWDDDKYYSTSLKTRLTISKDTSKNQVVLTMTNMDPVDTATYYCARATNYDSSGYYSLYFDYWGQGTLVTVSS
VL: not shown
As for B3, the “fold reduction in affinity relative to ADI-14359 Fab” value in assay [7] is > 30 fold.

B4: ADI-14405 (antibody, V domains shown)
VH: QVQLVQSGTEVKKPGASVKVSCKASGYTFTNYDISWVRQAPGQGLEWMGWISGSTGNTIYAQNLQGRLTMTTDTSTSTAYMELRSLRSDDTAIYYCARDNVGYASGNYFDYWGQGTLVTVSS
VL: SYVLTQPPSVSVAPGKTARIPCGGNNIGSKSVHWYQQRPGQAPVLVIYYDSVRPSGIPERFSGSNSGNTATLTISTVEAGDEADFYCQVWDSSRDHEVFGGGTKLTVL
notes: also called Ab 71; Antibody Number 71
As for B4, in assay [1], the “Neutralization - RSV A2 IC50 (pM)” value is 58.3 pM and the “neut IC50 (ug/ml) subtype A (graham)” value was found to be 0.04 µg/mL. Also, in assay [8], the “neut IC50 (ug/ml) subtype B (graham)” value was 0.04 µg/mL. Further, in [2], the Kd is 0.14 nM. Further, in assay [3], the Kd was 12 nM.

B5: ADI-41229 (antibody, V domains shown)
VH: QVQLVQSGGGVVQPGRSLKLSCAASGFTFKSYGMHWVRQAPGKGLEWVAVISYDEINKYYADSVKGRFTISRDYSKNTLSLQMNSLTTEDTAMYYCAKPKTTGYYYLDAFDFWGQGTMVTVSS
VL: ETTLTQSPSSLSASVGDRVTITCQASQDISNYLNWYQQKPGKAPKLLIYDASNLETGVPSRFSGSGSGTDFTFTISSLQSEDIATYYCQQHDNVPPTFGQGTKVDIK
notes: also called Ab 551; Antibody Number 551
Take B5: in [1], the “Neutralization - RSV A2 IC50 (pM)” value stood at 228 pM and the “neut IC50 (ug/ml) subtype A (wright)” value came out at 0.066 µg/mL. The Kd in assay [2] stood at 1.1 nM. For the same molecule, the Kd in assay [3] came out at 0.71 nM.

B6: ADI-20975 (antibody, V domains shown)
VH: QVQLVESGTHVKKPGASVKVSCEASDDTFNNKGIVWVRQAPGQGLEWMGWIRPNNGNTKYAQKFQGRVTMTTDASTNTAYMELRSLRSGDTAVYYCAREQFKWNDFYFDYWGQGILVTVSS
VL: SYELMQPPSVSVAPGQTATITCGGSNIGSETVHWYQQKPGQAPVLVVHDDTDRPSGIPERFSGSNSGNTATLTISGVEAGDEADFYCQVRDSRTDDVVFGGGTKLTVL
Consider B6, for which, in assay [1], the “Neutralization - RSV A2 IC50 (pM)” value was 67 pM and the “neut IC50 (ug/ml) subtype A (graham)” value is 0.05 µg/mL. Further, in assay [8], the “neut IC50 (ug/ml) subtype B (graham)” value is 0.49 µg/mL. Also, the Kd in assay [2] was determined as 0.092 nM. In addition, in assay [3], the Kd turned out to be 0.15 nM.

B7: ADI-43647 (antibody, V domains shown)
VH: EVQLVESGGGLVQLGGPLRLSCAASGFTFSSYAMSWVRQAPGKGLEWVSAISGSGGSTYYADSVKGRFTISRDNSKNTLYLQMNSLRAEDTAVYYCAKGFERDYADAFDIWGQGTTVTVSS
VL: DIRMTQSPSSVSASVGDRVTITCRASQGISSWLAWYQQKPGKAPKLLIYAASSLQSGVPSRFSGSGSGTDFTLTISSLQPEDFATYYCQQANSFPITFGQGTRLEIK
notes: also called Ab 828; Antibody Number 828
For the molecule B7, the “Neutralization IC50 (RSV subtype A)” value in assay [4] was > 25 µg/mL. Further, in [5], the binding result was “no binding”. For the same molecule, in [6], the Kd was determined as 44.6 nM.

B8: ADI-41221 (antibody, V domains shown)
VH: EVQLLESGGGLVKPGGSLRLSCAASGFTFSDYTMNWVRQAPGKGLEWVSSISITSSHIYYADSVKGRFTISRDNAKNSLYLQINSLRAEDTAAYYCARELGFASSSYSYYYGMDVWGQGTTVTVSS
VL: QSALTQPRSVSGSPGQSVTISCTGTSSDVGDYNSVSWYQQHPGTAPKLIIFDVTQRPSGVPDRFSGSKSANTASLTISGLQPEDEADYYCCSFAGNYVFGTGTKVTVL
B8: in [1], the “Neutralization - RSV A2 IC50 (pM)” value was determined as 65.4 pM and the “neut IC50 (ug/ml) subtype A (wright)” value is 0.04 µg/mL. Moreover, in assay [2], the Kd came to 0.3 nM. Also, the Kd in assay [3] was 0.32 nM.

B9: ADI-19425 Fab variant, light chain Y31A (Fab, V domains shown)
VH: EVQLVESGGGLVKPGGSLRLSCAASGFTFSSYSMNWVRQAPGKGLEWVSSISSSSSYIYYADSVKGRFTISRDNAKNSLYLQMNSLRAEDTAVYYCARLGYCSGGSCHFDYWGQGTLVTVSS
VL: QPVLTQPPSVSGAPGQRVTISCTGSSSNIGAGADVHWYQQLPGTAPKLLIYGNSNRPSGVPDRFSGSKSGTSASLAITGLQAEDEADYYCQSYDSSLSGFYVFGTGTKLTVL
notes: also called Y33A
For B9, the “fold reduction in affinity relative to ADI-19425 Fab” value in assay [9] was > 20 fold.

B10: ADI-19425 Fab variant, light chain Y91A (Fab, V domains shown)
VH: B9 VH
VL: B9 VL with A33Y, Y93A
notes: also called Y93A
Turning to B10, in [9], the “fold reduction in affinity relative to ADI-19425 Fab” value was > 80 fold.

B11: ADI-43639 (antibody, V domains shown)
VH: QVQLVQSGSELKKPGASVKVSCKASGYTFTSYAMNWVRQAPGQGLEWMGWINTNTGNPTYAQGFTGRFVFSLDTSVSTAYLQISSLKAEDTAVYYCAAYGIHDAFDIWGQGTMVTVSS
VL: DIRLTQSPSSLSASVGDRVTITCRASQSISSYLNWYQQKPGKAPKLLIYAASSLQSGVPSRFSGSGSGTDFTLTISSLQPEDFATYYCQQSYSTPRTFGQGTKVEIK
Turning to B11, the “Neutralization IC50 (RSV subtype A)” value in assay [10] is > 25 µg/mL. In assay [11], the binding result is recorded as “no binding (tested: 100 nM antigen)”. Also, in assay [12], the Kd worked out at 233 nM.

B12: ADI-43638 (antibody, V domains shown)
VH: QVQLQQWGAGLLKPSETLSLTCAVYGGSFSGYYWSWIRQPPGKGLEWIGEINHSGSTNYNPSLKSRVTISVDTSKNQFSLKLSSVTAADTAVYYCARGVPVLRYFDWLRFGYGMDVWGQGTTVTVSS
VL: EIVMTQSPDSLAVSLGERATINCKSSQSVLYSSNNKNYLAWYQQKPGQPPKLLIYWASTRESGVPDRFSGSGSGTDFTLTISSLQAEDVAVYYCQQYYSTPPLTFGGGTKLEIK
B12: the “Neutralization IC50 (RSV subtype A)” value in assay [10] is > 25 µg/mL. In addition, the binding result in [11] is “no binding (tested: 100 nM antigen)”. The Kd in assay [12] amounted to 9.93 nM.
